Patent US10081665B2, “Peptides and combination of peptides for use in immunotherapy against various tumors” (immatics biotechnologies GmbH, priority 2015, dated 2018)

What was measured:
[1] = tested on: CD8+ T cells; experiment: In vitro immunogenicity: T-cell priming with aAPCs loaded with peptide/MHC complexes and anti-CD28, pMHC multimer readout; format: cell-based, human; settings: for Wells positive [%]: in vitro immunogenicity, HLA-A*02 restricted peptides, percentage of positive wells and donors (among evaluable); for in vitro immunogenicity: donors: positive donors; for in vitro immunogenicity: donors / in vitro immunogenicity: wells: CD8+ T cells of healthy HLA-A*02 donors, three stimulation cycles, multimer staining; for in vitro immunogenicity: wells: positive wells
Excerpt: In order to obtain information regarding the immunogenicity of the TUMAPs of the present invention, the inventors performed investigations using an in vitro T-cell priming assay based on repeated stimulations of CD8+ T cells with artificial antigen presenting cells (aAPCs) loaded with peptide/MHC complexes and anti-CD28 antibody.
In order to perform in vitro stimulations by artificial antigen presenting cells loaded with peptide-MHC complex (pMHC) and anti-CD28 antibody, the inventors first isolated CD8+ T cells from fresh HLA-A*02 leukapheresis products via positive selection using CD8 microbeads (Miltenyi Biotec, Bergisch-Gladbach, Germany) of healthy donors obtained from the University clinics Mannheim, Germany, after informed consent. PBMCs and isolated CD8+ lymphocytes were incubated in T-cell medium (TCM) until use consisting of RPMI-Glutamax (Invitrogen, Karlsruhe, Germany) supplemented with 10% heat inactivated human AB serum (PAN-Biotech, Aidenbach, Germany), 100 U/ml Penicillin/100 μg/ml Streptomycin (Cambrex, Cologne, Germany), 1 mM sodium pyruvate (CC Pro, Oberdorla, Germany), 20 μg/ml Gentamycin (Cambrex). 2.5 ng/ml IL-7 (PromoCell, Heidelberg, Germany) and 10 U/ml IL-2 (Novartis Pharma, Nürnberg, Germany) were also added to the TCM at this step. Generation of pMHC/anti-CD28 coated beads, T-cell stimulations and readout was performed in a highly defined in vitro system using four different pMHC molecules per stimulation condition and 8 different pMHC molecules per readout condition.
The purified co-stimulatory mouse IgG2a anti human CD28 Ab 9.3 (Jung et al., 1987) was chemically biotinylated using Sulfo-N-hydroxysuccinimidobiotin as recommended by the manufacturer (Perbio, Bonn, Germany). Beads used were 5.6 μm diameter streptavidin coated polystyrene particles (Bangs Laboratories, Illinois, USA).
pMHC used for positive and negative control stimulations were A*0201/MLA-001 (peptide […] (SEQ ID NO. 289) from modified Melan-A/MART-1) and A*0201/DDX5-001 ([…] from DDX5, SEQ ID NO. 290), respectively.
800,000 beads/200 μl were coated in 96-well plates in the presence of 4×12.5 ng different biotin-pMHC, washed and 600 ng biotin anti-CD28 were added subsequently in a volume of 200 μl. Stimulations were initiated in 96-well plates by co-incubating 1×10^6 CD8+ T cells with 2×10^5 washed coated beads in 200 μl TCM supplemented with 5 ng/ml IL-12 (PromoCell) for 3 days at 37° C. Half of the medium was then exchanged by fresh TCM supplemented with 80 U/ml IL-2 and incubating was continued for 4 days at 37° C. This stimulation cycle was performed for a total of three times. For the pMHC multimer readout using 8 different pMHC molecules per condition, a two-dimensional combinatorial coding approach was used as previously described (Andersen et al., 2012) with minor modifications encompassing coupling to 5 different fluorochromes. Finally, multimeric analyses were performed by staining the cells with Live/dead near IR dye (Invitrogen, Karlsruhe, Germany), CD8-FITC antibody clone SK1 (BD, Heidelberg, Germany) and fluorescent pMHC multimers. For analysis, a BD LSRII SORP cytometer equipped with appropriate lasers and filters was used. Peptide specific cells were calculated as percentage of total CD8+ cells. Evaluation of multimeric analysis was done using the FlowJo software (Tree Star, Oreg., USA). In vitro priming of specific multimer+CD8+ lymphocytes was detected by comparing to negative control stimulations.

[2] = target: HLA-A*02:01 (Homo sapiens, UniProt P04439, D140Y/D185E/D98H/E176V/E277Q/G131W/G231S/I119V/I121R/I166T/I218V/L300P/L318F/N151K/N90K/P208A/P217A/Q86G/Q94H/R138H/R169H/T345S); experiment: MHC binding assay (UV-ligand exchange, beta2m ELISA); settings: binding to HLA-A*02:01, β2m ELISA
How it was run: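 Peptide-MHC complexes made by UV-ligand exchange of a UV-cleavable peptide for test peptide; exchange yield measured by β2m ELISA on streptavidin-coated plates with samples diluted 100-fold, HRP anti-β2m and TMB read at 450 nm. Refolded HLA-A*02:01/MLA-001 monomers (15-500 ng/ml) served as standards.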

Substance	Peptide exchange (MHC class I binding score, peptide exchange yield) [2]	Wells positive [%] [1]	in vitro immunogenicity: donors [1]	in vitro immunogenicity: wells [1]
89 (SLAETIFIV; listed as Homo sapiens) [compound 89]	+++ (≥50 = +++)	+ (<20% = +)		
288 (SLYKGLLSV; listed as Homo sapiens) [compound 288]			++++ (>= 70% = ++++)	++ (21%-49% = ++)
35 (VIIKGLEEI; listed as Homo sapiens) [compound 35]	++ (≥20% = ++)	+ (<20% = +)		
17 (GLLPSAESIKL; listed as Homo sapiens) [compound 17]	++++ (≥75% = ++++)	+ (<20% = +)		
34 (TLNTLDINL; listed as Homo sapiens) [compound 34]	+++ (≥50 = +++)	++++ (>=70% = ++++)		
27 (GLLGKVTSV; listed as Homo sapiens) [compound 27]	+++ (≥50 = +++)	+ (<20% = +)		
121 (ALYVQAPTV; listed as Homo sapiens) [compound 121]	++ (≥20% = ++)	+ (<20% = +)		
39 (YLEDGFAYV; listed as Homo sapiens) [compound 39]	+++ (≥50 = +++)	++++ (>=70% = ++++)		
9 (SLITGQDLLSV; listed as Homo sapiens) [compound 9]	+++ (≥50 = +++)	+ (<20% = +)		
101 (SLLEVNEASSV; listed as Homo sapiens) [compound 101]	+++ (≥50 = +++)	+ (<20% = +)		
29 (KMISAIPTL; listed as Homo sapiens) [compound 29]	++ (≥20% = ++)	+ (<20% = +)		
4 (VLFGELPAL; listed as Homo sapiens) [compound 4]	+++ (≥50 = +++)	+ (<20% = +)		
287 (KIQEILTQV; listed as Homo sapiens) [compound 287]			+++ (50%-69% =+++)	+ (<20% = +)
90 (AILNVDEKNQV; listed as Homo sapiens) [compound 90]	++ (≥20% = ++)			
26 (VLDGKVAVV; listed as Homo sapiens) [compound 26]	+++ (≥50 = +++)			

Second part, led by results:

Peptide exchange (MHC class I binding score, peptide exchange yield) [2]	Substance	Wells positive [%] [1]	in vitro immunogenicity: donors [1]	in vitro immunogenicity: wells [1]
++ (≥20% = ++)	264 (TLHDQVHLL; listed as Homo sapiens) [compound 264]	+ (<20% = +)		
+++ (≥50 = +++)	233 (SLFESLEYL; listed as Homo sapiens) [compound 233]	+ (<20% = +)		
+++ (≥50 = +++)	255 (FLMKNSDLYGA; listed as Homo sapiens) [compound 255]	+ (<20% = +)		
++ (≥20% = ++)	203 (FLFVDPELV; listed as Homo sapiens) [compound 203]	+++ (50%-69% = +++)		
+++ (≥50 = +++)	169 (ALADLSVAV; listed as Homo sapiens) [compound 169]			
++ (≥20% = ++)	171 (LLLLDVPTA; listed as Homo sapiens) [compound 171]			
+++ (≥50 = +++)	251 (LLWGNLPEI; listed as Homo sapiens) [compound 251]			
++ (≥20% = ++)	219 (GVVPTIQKV; listed as Homo sapiens) [compound 219]			
